Results as given in PMC9812381 (Science Advances, 2023).

Biological target: T1, Cullin-5 (CUL5), residues 12-780 (human, UniProt Q93034 12-780)
T1 construct: source: E. coli BL21 (DE3), coexpressed with RBX2, purified (Ni-NTA, SEC); not shown: GB1, N-terminal, cleaved
T1 sequence: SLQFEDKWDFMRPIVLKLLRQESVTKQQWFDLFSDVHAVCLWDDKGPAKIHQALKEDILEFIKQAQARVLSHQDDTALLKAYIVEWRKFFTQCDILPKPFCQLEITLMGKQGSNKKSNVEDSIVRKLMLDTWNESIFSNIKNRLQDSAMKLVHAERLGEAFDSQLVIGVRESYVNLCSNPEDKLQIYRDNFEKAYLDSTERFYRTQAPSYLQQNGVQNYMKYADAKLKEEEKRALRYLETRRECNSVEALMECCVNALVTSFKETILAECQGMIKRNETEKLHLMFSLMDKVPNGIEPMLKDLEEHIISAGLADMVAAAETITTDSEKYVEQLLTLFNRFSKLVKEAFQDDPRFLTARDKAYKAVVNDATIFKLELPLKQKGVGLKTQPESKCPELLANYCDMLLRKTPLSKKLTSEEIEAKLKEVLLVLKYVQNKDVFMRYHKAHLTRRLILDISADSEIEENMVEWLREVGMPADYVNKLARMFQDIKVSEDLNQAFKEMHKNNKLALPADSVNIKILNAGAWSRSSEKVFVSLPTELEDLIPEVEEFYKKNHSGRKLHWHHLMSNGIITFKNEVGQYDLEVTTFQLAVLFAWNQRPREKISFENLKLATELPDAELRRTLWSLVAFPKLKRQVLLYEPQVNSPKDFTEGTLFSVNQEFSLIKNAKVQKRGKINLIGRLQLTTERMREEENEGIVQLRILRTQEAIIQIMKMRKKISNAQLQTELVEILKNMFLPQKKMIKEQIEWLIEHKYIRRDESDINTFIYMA
Assay: cryo-EM structure
Conditions: both partners purified

B1: zinc finger RING-box protein 2 (RBX2), residues 1-113 (natural protein)
chain: MADVEDGEETCALASHSGSSGSKSGGDKMFSLKKWNAVAMWSWDVECDTCAICRVQVMDACLRCQAENKQEDCVVVWGECNHSFHNCCMSLWVKQNNRCPLCQQDWVVQRIGK
notes: source: E. coli BL21 (DE3), coexpressed with CUL5, purified (Ni-NTA, SEC)
binding result: binds
